# Results reported in paper PMC2171422 (The Journal of Cell Biology, 2005).
# T1: protein A–Sro7p (yeast (budding yeast), UniProt Q12038 1-1033)
# T1 sequence: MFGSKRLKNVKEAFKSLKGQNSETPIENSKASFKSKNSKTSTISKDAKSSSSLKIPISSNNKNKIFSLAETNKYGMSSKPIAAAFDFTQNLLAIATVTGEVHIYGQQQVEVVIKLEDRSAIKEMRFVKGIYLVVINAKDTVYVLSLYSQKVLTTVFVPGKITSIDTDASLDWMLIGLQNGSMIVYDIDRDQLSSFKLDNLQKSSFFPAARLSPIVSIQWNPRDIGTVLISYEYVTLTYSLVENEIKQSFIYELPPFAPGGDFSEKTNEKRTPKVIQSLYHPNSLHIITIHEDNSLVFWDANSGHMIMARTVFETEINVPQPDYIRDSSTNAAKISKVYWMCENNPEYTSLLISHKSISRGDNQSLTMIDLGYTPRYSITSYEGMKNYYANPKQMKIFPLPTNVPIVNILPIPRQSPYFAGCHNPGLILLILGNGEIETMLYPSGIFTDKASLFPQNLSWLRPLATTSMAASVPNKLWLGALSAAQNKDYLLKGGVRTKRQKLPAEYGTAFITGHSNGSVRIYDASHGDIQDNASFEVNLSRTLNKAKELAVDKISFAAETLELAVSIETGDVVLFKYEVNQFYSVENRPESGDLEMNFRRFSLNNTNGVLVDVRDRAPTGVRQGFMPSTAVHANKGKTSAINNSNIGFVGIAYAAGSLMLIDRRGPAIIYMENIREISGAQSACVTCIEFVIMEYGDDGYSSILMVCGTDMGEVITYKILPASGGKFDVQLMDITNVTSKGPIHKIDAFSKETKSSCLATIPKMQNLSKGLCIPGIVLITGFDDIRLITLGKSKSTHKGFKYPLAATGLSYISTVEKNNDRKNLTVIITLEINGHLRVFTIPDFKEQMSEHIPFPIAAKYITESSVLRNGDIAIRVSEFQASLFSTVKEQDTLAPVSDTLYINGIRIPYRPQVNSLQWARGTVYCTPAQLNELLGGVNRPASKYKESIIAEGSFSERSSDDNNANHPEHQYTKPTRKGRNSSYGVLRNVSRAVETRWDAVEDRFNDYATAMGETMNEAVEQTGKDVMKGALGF
# Target: T1, protein A–Sro7p
# Test: pull-down
binder,measurement,value
Exo84p NH2-terminal domain (aa 1–320) GST fusion protein (domain or fragment) MVEFSLKKARNNWKHVKKSASSPAKQKTPPSPAKPKQKTKKNPYSDLKDPATSYTLPTINARERSRVATSMQRRLSIHNTNYAPPTLDYSMPLPDMPNMIVPNDNVDSSHNNSSFTTENESVSSKGPSNSLNLSTADLSLNDSSYNKVPARSAMRNTVNPSGSNDPFNNSTSLRKMLANPHFNAKDFVHDKLGNASAITIDKFTSNLTDLSIQVQEEVKLNINKSYNEIMTVNNDLNVAMLELKRVRANINDLNEVLDQCTKIAEKRLQLQDQIDQERQGNFNNVESHSNSPALLPPLKAGQNGNLMRRDRSSVLILEKF,Kd,46 ± 6 nM
